Substitutions are numbered along the chain they refer to. In names and notes the source's numbering stands.
B1: ACCTAC (AC-I) (dsDNA)
DNA 1: ACATTGGGCGAGAAAAGCTGATCCCCACCTACCCGGGCTATCTCCCCCTCCTCCTCCGATCTG
DNA 2: CAGATCGGAGGAGGAGGGGGAGATAGCCCGGGTAGGTGGGGATCAGCTTTTCTCGCCCAATGT
B2: ACCTAG (AC-I mutant, C6G) (dsDNA)
DNA 1: B1 DNA 1 with C32G
DNA 2: B1 DNA 2 with G32C
B3: ACCAAA (dsDNA)
DNA 1: B1 DNA 1 with T30A, C32A
DNA 2: B1 DNA 2 with G32T, A34T
B4: ACCACC (dsDNA)
DNA 1: B1 DNA 1 with T30A, A31C
DNA 2: B1 DNA 2 with T33G, A34T
B5: ACCGAC (AC-I mutant, T4G) (dsDNA)
DNA 1: B1 DNA 1 with T30G
DNA 2: B1 DNA 2 with A34C
B6: ACCTGC (AC-I mutant, A5G) (dsDNA)
DNA 1: B1 DNA 1 with A31G
DNA 2: B1 DNA 2 with T33C
B7: ACCAAC (dsDNA)
DNA 1: B1 DNA 1 with T30A
DNA 2: B1 DNA 2 with A34T
B8: NBS (non-binding site, GAGACC) (dsDNA)
DNA 1: B1 DNA 1 with A27G, C28A, C29G, T30A, A31C
DNA 2: B1 DNA 2 with T33G, A34T, G35C, G36T, T37C
B9: ACCACA (dsDNA)
DNA 1: B1 DNA 1 with T30A, A31C, C32A
DNA 2: B1 DNA 2 with G32T, T33G, A34T
B10: ACCATA (dsDNA)
DNA 1: B1 DNA 1 with T30A, A31T, C32A
DNA 2: B1 DNA 2 with G32T, T33A, A34T
B11: ACCAAT (dsDNA)
DNA 1: B1 DNA 1 with T30A, C32T
DNA 2: B1 DNA 2 with G32A, A34T

Experiments:
AtMYB61 [1] = target: T1, AtMYB61 (Arabidopsis thaliana, UniProt Q8VZQ2 1-366); assay: filter binding; Buffer, salt, pH and temperature not stated (filter binding per Hall and Kranz; EMSA per earlier work); filter binding with 1065 nM probe (124.41 ng, 60 bp) in; conditions: protein: recombinant; tags: pET15b (NdeI/BamHI) fusion
AtMYB61 [2] = target: T1, AtMYB61; assay: EMSA; 5E-08 M protein; Buffer, salt, pH and temperature not stated (filter binding per Hall and Kranz; EMSA per earlier work); filter binding with 1065 nM probe (124.41 ng, 60 bp) in; conditions: protein: recombinant; tags: pET15b (NdeI/BamHI) fusion

T1 sequence (Q8VZQ2 whole entry, the tested form may be a part): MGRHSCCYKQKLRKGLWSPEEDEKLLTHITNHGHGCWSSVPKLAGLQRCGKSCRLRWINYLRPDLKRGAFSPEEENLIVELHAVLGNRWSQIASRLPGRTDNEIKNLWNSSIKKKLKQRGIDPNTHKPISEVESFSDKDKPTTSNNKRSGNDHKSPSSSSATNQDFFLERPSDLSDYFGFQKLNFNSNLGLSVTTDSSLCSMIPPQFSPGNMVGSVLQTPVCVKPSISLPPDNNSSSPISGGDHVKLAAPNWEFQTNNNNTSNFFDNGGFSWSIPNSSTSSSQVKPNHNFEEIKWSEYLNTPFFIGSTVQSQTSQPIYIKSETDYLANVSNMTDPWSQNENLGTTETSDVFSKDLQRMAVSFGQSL

Binder | Kd (AtMYB61 [1]) [nM] | binding result (AtMYB61 [2])
B1 | 9.12 | –
B2 | 56 | –
B3 | 16.8 | –
B4 | 690 | –
B5 | 719 | –
B6 | 79.7 | –
B7 | 73.7 | –
B8 | – | no binding
B9 | 80.8 | –
B10 | 18.3 | –
B11 | 12.1 | –
